This note sets out measurements from patent publication EP4818200A1 (USWM CT, LLC, dated 2026).

Experiment [1] concerns the target T1, … HLA-A*0201 complex (biotinylated soluble pHLA) (human, enzymatically biotinylated (BirA) on the C-terminal biotinylation tag).
T1 construct: also called MAGE-B2; not shown: C-terminal biotinylation tag
Description: SPR (BIAcore 3000), soluble TCR over immobilised biotinylated pHLA, 25 °C.

Experiment [2] deals with T2, … HLA-A*0201 complex (biotinylated soluble pHLA) (human, enzymatically biotinylated (BirA) on the C-terminal biotinylation tag).
T2 construct: also called MAGE A4; not shown: C-terminal biotinylation tag
The experiment is described as above.

B1: TCR2 (TCR)
TCR alpha: MKNQVEQSPQSLIILEGKNCTLQCNYTVSPFSNLRWYKQDTGRGPVSLTIMTFSENTKSNGRYTATLDADTKQSSLHITASQLSDSASYICVVSGGTDSWGKLQF
TCR beta: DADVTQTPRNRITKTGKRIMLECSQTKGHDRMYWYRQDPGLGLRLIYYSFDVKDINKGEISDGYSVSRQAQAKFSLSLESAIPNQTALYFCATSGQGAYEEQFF
On to B1, for which the figures for the dissociation constant (Kd) in experiment [1] and in experiment [2] were 198 µM and 17.2 µM, respectively.

B2: TCR4 (TCR)
TCR alpha: MKNQVEQSPQSLIILEGKNCTLQCNYTVSPFSNLRWYKQDTGRGPVSLTILTFSENTKSNGRYTATLDADTKQSSLHITASQLSDSASYICVVSGGTDSWGKLQF
TCR beta: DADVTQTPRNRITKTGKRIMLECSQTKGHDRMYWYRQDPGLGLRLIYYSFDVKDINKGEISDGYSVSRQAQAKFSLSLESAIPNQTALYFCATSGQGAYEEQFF
As to B2, the figures for the dissociation constant (Kd) in experiment [1] and in experiment [2] were 52.6 µM and 5.1 µM, respectively.

B3: TCR3 (TCR)
TCR alpha: MKNQVEQSPQSLIILEGKNCTLQCNYTVSPFSNLRWYKQDTGRGPVSLTIVTFSENTKSNGRYTATLDADTKQSSLHITASQLSDSASYICVVSGGTDSWGKLQF
TCR beta: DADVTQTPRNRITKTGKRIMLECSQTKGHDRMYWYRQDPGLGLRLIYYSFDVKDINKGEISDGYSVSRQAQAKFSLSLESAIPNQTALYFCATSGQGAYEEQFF
For the molecule B3, the Kd (in general, the constant that tells how readily two partners part at equilibrium) in experiment [1] amounted to 27.6 µM; in experiment [2] it was 2.6 µM.
